Assay: label from the status in PepcDB records
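Note: failed if final PepcDB status was selected cloned or expressed and not failed if soluble or beyond.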

Sequence | protein production
MVTALARPEQTMQELAFRTLLYRYFFFDWLFKDASRGDLRERSAAWRFNQAHAHWLLTYLRRWVWCGALFCLLGGSIELMLSAPVLSAFFYVPGVLSVPINVVICVLWVGLKTLPGPM | failed
MSVPLILTLLAGAATFIGAFLGVLGQKPSNRMLAFSLGFAAGIMLLISLMEMLPAALDTEGMSPVLGYGMFIIGLLGYFGLDRLLPHAHPQDLVQKRQQPLPGSIKRTAILLTLGISLHNFPEGIATFVTASSNLELGFGIALAVALHNIPEGLAVAGPVYAATGSKRTAIFWAGISGMAEILGGVLAWLILGSLVSPIVMAAIMAAVAGIMVALSVDELMPLAKEIDPNNNPSYGVLCGMSIMGLSLVILQTIGIG | failed
LEYSNIPITDNNKVKLIKSGREKFEDLFEAIRGAKHHIHLEYFNFRNDSIANALFDLLGEKVKEGVKVRAMFDAFGNWSNNKPLKKRHLKAIREKGIEIVKFDPFKFPYINHAAHRDHRKIAVIDGKIGYTGGMNIADYYINGLPKIGTWRDMHIRIEGDAVNILQEIFLDIWNKTTKQNIVGEEYFPNHPERADSCNTVISIVDRTPKRNSRMLSHT | failed
MAKVTERYDVTWEEMRDKMRKWREENSRNSEQIMEVGEELINDYASKLGDDIWIIYEQVMIAALDYGRDDLALFCLQELRRQFPGSHRVKRLTGMRFEAMERYDDAIQLYDRILQEDPTNTAARKRKIAIRKAQGKTVEAIRELNEYLEQFVGDQEAWHELAELYINEHDYAKAAFCLEELMMTNPHNHLYCQQYAEVKYTQGGLENLELSRKYFAQALKLNNRNMRALFGLYMSASHIASNPKASAKMKKDNIKYASWAANQINRAYQFAGRSKKETKYSLKAVEDMLETLQITQS | failed
MQTLLPLLARGAVLSPFKRPRPDAAFPHSRLVLSGVRIDLARLAAYERACGFPTGADALPLTYPHVLGFPLAMRIMASRAFPLPLLGLVHTSIEVTRLREPAATGEYELAVHVEGLTPHRRGTEATVVTGARVDGSLVWESRSTYLARHRRATDARTPADARTATDARTPADARTATDARTAADARTAAPVPSAEPKPLPVVAEWRLAADVGRRYAAVSGDRNPIHLHPLTARLFGFPRAIAHGMWTVARCLAEQPADASVQLRAEFKSPVLLPGTVTYAADGGRFELRGGERVHLTGELREYRANSA | failed
MDIKELKEIATKSREKQTKIRIRCCSAAGCLSSEGETVKKNLTTAIAAAGLEEKVEVCGVGCMKFCGRGPLVAVDDRNQLYEFVTPDQVGDIVKKLQKPDAVAETGLISGDPHHPFY | failed
MKEQSYGKFAKFLHWVMALMIIVLIAVGTYMAGLDKADPNKMLLVGMHKSFGVIFMQFAILRVIWSRLNNSPKLPDVLASWEKLLSKTITGSLYLLMLAIPFSGYAMTNLFGYPVSLFGLIDLPVLFGKNTEMALLAKQAHFLLVYTLMAALFAHITGALKHRFLDKPEADVLPRMMPIKPRI | failed
MKKLKIVMTGGGSAGHVTPNLALVPKLKELGYEIEYIGTKDGIERSIIEKENIKYNCISSGKLRRYIDIKNFSDPFKVILGIFQSVSILRKKKPNIVFSKGGFVSVPVVIAAHFCRIPVIAHESDITPGLANRIAVPYCTKVCATFPESLNNIKGNKGILTGTPIRDELFKGSKIKGLEICGFTGEKPVLMIIGGSLGSKIIN | failed
MAANNRRMSGKKGAQVGSGGKRRRGLEGKGPTPPAEMRKGHAKQRAANAKARRTTGGRPQQRRGGGRSTSELVVGRNPVYEALREGVPASTLYVQQFIDNDERVREALQLAAERGGINLMEAPRPELDRMTNGLNHQGLVLQVPPYEYAHPEDLVAAAHDEGIDPLIVALDGVTDPRNLGAVVRSVSAFGGHGVVVPERRAAGMTAGAWKTSAGTAARTPVARATNLTRALEQYQKAGITVVGLAADGEAELGDLAALDGPVVIVVGSEGKGLSRLVGETCDFRVRIPMPGGAESLNAGVAAGIVLYEAARRRS | failed
VYRRILLTVDEDDNTSSERAFRYATTLAHDYDVPLGICSVLESEDINIFDSLTPSKIQAKRKHVEDVVAEYVQLAEQRGVNQVEPLVYEGGDVDDVILEQVIPEFKPDLLVTGADTEFPHSKIAGAIGPRLARKAPISVIVVR | failed
MLEGAKFNVLAVGNHHNNDNNYYAFTQEFYQKLNEGSNMSMESMQTSNAGGSVSMSVDNSSVGSSDALIGHPGLKPVRHYSLSVGQSVFRPGRVTHALNDDALAQALMDTRYPTEGLTNYDEWTIDLRKLNMGPAFAQGAFGKLYKGTYNGEDVAIKILERPENSPEKAQFMEQQFQQEVSMLANLKHPNIVRFIGACRKPMVWCIVTEYAKGGSVRQFLTRRQNRAVPLKLAVKQALDVARGMAYVHGRNFIHRDLKSDNLLISADKSIKIADFGVARIEVQTEGMTPETGTYRWMAPEMIQHRAYNQKVDVYSFGIVLWELITGLLPFQNMTAVQAAFAVVNRGVRPTVPNDCLPVLSDIMTRCWDANPEVRPCFVEVVKLLEAAETEIMTTARKARFRCCLSQPMTID | failed
MKVVLVGATGFVGRHLLAALHAAGHQLIATSRRPQPQGLPGVEWRQLDLDCLGREPQPFALPADTDLLINAAGLLSTDARALSLTQDLGTRALFDLAAARGVRVLQISALGAGILPQVPFLASKAAADDYLLQLGVPAVVLRPSLVLGAGGASSGWLTRLSPWPLIPLLSAKAQMQPLHIEDLSAAVLALLRQWPQESMVLPLVGPERMTMAQLLDRLRSAQGWAPARYFKLPAVLLRLVAAAGDRLGWRALNRQSLAMARHDNLADPQVLASVCGYHAAPLAARLQDWPQAAQSTQLALRPLLLAVMVLIWLGTALVCIGPGYAWGLRIMAEAGVQGIWAALAVIGGSLCDALLGVGLLLRRWRRRALQAQLGLMLGYTLIISLILPHFWFDPYAAVAKNLVLMVATLWLLWTEPHQ | failed
MSVPSPVNESLLSQRLAALGAARSWAPNVLPELEHFIRTADDYDLLRVNPIQYGGAVRMSEADAIELFVHAAKVGLFDMDWLLICAYCPQVAGSFRELDQVHPRFQCAFCNAINDVALDDYIQVAFTVSSGVRDIIFRHPERLSVEDFYLRYNFSKGFIAPHGMTHQQLVAALSRGFADIEAHEHRSFDFEVTAGRFEVLDLSHKLLLVFFADGEPAEPQETLVQLESGRFHVPDRPTAPKDMVLGDGQFSFRQTADLSPGKHTIRIENRTDDRGRFWFVQYPPGFAPHLVEYEPFLSGKRLLLTPSFRELYKAQLVDEGESIKVSDMTFLFTDLKKSTPLYESVGDVNAYFLVRQHFEILNRIIRERSGTIIKTIGDAVMAGFERPQDAVCAAIEMIEELSRFNQTASRPLGLKVGVHRGRAIAVNLNDRIDYFGQDVNIAARVQGLADVDEVCISATAMEAPGVGDIVNSRSVSRNYENLKGIGQKMEVHRMTIPPTQT | failed
MPHLNILIVRIEEFLRSIVKITSAPTYKTRVKSFNSYYLKLLKFPPKKDTSDLPVLTDILGVRIICPFLQDINEVERILLKNFKIIEVERKGSERTFREFGYESVHFLLDIPEEFKVGLVLPKNLIFEIQLRTILQDAWAEVEHELVYKSEFSPFDQPLKRKLASINASLSLADIIFQEIRDYQNKLNAELEKRRFEFYSMADEYTAQVLPETNIVQHDNVEHGEELKLAETIDDLILSAIEAHNQNLFDKAEKIYTKIIEQNPNDIVLSVVYKHRGMAYFAQANYEGAYADFLQSCKYNSANFRSFYYVGIALTLLNRDDEAIEYFTKSLEINKFQAHVYFRRALSYFKLALYPEAARDLDSASDLGLAEEDAKKLRIAIAKKIDMV | failed
MILHRYLLRESLPVLLLALLFLTAVYLFGFFYAGARWLEGVPLPKILRWLSYHVPGIWVQVFPIALVTTTVLVFGRLAAEGAHFALLSAGIPLGRAALPLVAVGAVLSGLALYLQEYVVPEANNRVRVAWWDEIHTQGAGLFRLKGMQIPIGQGKSLYFQDFDMAAKEMVGVRITAFQGEVGTFLFAERGTWEDKTLTLKDYRYYQVDFAQVPGLETAPDLLAQVRRVFRVVSQGKTLEVTSDLSRARAIADYADTFSFGQDSLSEAWRKLKDPFLPPLEKWRARLELHSKLALPLANLVLVLLAAAMALRYGKSPGLALGMSVVLALAYYGAFFLGRALAGIGALPPELGAWGANLLFLLLGLRALR | failed
MGDTKVETISRLAQWRIENFGPCSFKKSDPFKVGIWNWHLSIERNRYLSVRLFPELSRVSKEQPPVAKFVLRVSNVGPNRRFYISPVYEKLLRTTDDCVWHVDSSFHGRFTIDVEFLDLKICPVNGGEASPVWPTDATMQSISTQTTLKCLSRMLEESILTDVIIHTADGTLSAHKAILSASSTVFKSMFHHDLMEKESSTIHIDDMSRESCMALLSYLYGNITQEEFWKHRLALLGAANKYDITDLKAACEESLMEDINSSNVLERLQEAWLYQLEKLKKGCLMYLFDFGKIYDVREEISSFFRQADRELMLEMFQEVLSVWKPV | failed
MSSCGCAYDILKYQLVIKGNRFNEESEQSMTETTENTVNLPYRNPKLPTEERIADLLGRMTLEEKVGQMMQLDARSGDLDDLIVNKHVGSILHTSPSDLPKAVETVNAKTRLGIPLVIGDDCIHGYSFWPGATIFPEQLGMATTWDSEKVQAAGRATAEEVSATGVHWTFSPVLCIARDTRWGRVGETFGEDPYLIGEMASSIVKGYQGGAKAGEPLAKDAILACAKHFAGYSETQGGRDASEADLSHRKLESWFLPPFERVAKEGCGTFMLGYESIEGVPVTFNKWLLSDKLRGAWNYQGTLITDWDNVGRSVWEQKVKPDYVQAAADAVKSGNDLVMTTPKFYEGAIEAVKTGLLDESLIDAAVARILALKFRLGLFEDPRLPDQKRIDAVIGSEEHQQLNLEVAREAVALLKNDGSLPFNVAGAKRIAVVGPLADDVQTQLGDWAGSSGQINWMPDGHPREMITTVLDGFKQLAPEGCEVVYSRGANIVDLVPDPEGEFYPDGQPRPKIGVSAKIDRALLGEAVENARKSDLIVAVVGDVIQAIGEGCSTATLELLGGQNALIDALSNVARETGKPFVVVLVSSKPQVLPASVIGTNGVIVDETPAEGTSALLWAPSPGMKGGQAIAEIILGETEPSGRLPITFPRHAGQLPVYYNQIRGQHGNRYADLTQNPAFAFGEGLSYTTFEYGDPTITNVPESGIFAETDTVHAEITLTNTGDRKGTEVVQLYIGDIVTSYSWTDRELKAFQRVELEPGKSKTVAFDIPVSDCTIVDSEANRIVEPGEFEVLIGHSSRREHLKRTTFTVA | failed
MIKMIVVLRLGHRPERDKRVTTHVALTARAFGADGIIIASEEDEKVKESVEDVVKRWGGPFFIEFNRNWRKVMKEFTGVKVHLTMYGLHVDDVIEELKEKLKKGEDFMIIVGAEKVPREVYELADYNVAIGNQPHSEVAALAVLLDRLLEGKGLKKEFKGAKIKIVPQARGKKVVEVQGYAEQDKAEGKATPGKNWENSGFTGDNP | not failed
MTKNTRFSPEVRQRAVRMVLESQGEYDSQWATICSIAPKIGCTPETLRVWVRQHERDTGGGDGGLTTAERQRLKEPERENRELRRSNDILRQASAYFAKAEFDRLWKK | failed
MFGFLRSTTSNDNTLSDTQVNESYRYWRLHIMIGMYIGYAGFYFTRKTFNYAAPAMITDLGLDKGDLGLIGTLFYISYGLSKFLSGTISDRSNPRYFMGLGLIATGLINIAFGFSSSLAAFISLWVLNAWFQGWGWPSCSKLLTTWYSRSERGFRWAIWNTAHNIGGALIPILVGYLTLHYSWREGFILPGIIGVAIGLIVCWRLRDKPTTMGLPSVGKWRNDPLELAQENHGQGLSYREILKTYVFSNKYIWLLAFSYVLVYIVRTAVNDWGNLYLTEEHNYSLINANAALSLFEIGGFVGSLVAGWGSDKLFGGNRGPMNILFAIGIFLSVSALWLMPLTNFVFQAAGLFSVGFFVFGPQMLIGMAAAECSHKDSAGAATGFVGLFAYMGAALSGYPLAVILETYGWTGFFITISTCAAVIGLLLLPFLQAQSPQKPIETRVRL | failed

From a protein production outcome set (Wang et al. 2014)
